The assay addresses T1, SpyCatcher-HBsAg (Hepatitis B virus (adw serotype) for …).
T1 construct: Expressed in Pichia pastoris; also called HBsAg VLP monomer; SpyCatcher-HBsAg VLP
Kind of assay: isopeptide conjugation in TBS, followed by SDS-PAGE and Western blot. (In general: Immunoblotting shows a protein as a band on a membrane.)

The source of these data is patent US20260007740A1 (SPYBIOTECH, published 2026).

B1: RSV-F-SpyTag (RSV-F Sc9-10 DS-Cav1 A149C Y458C-SpyTag-Ctag) (other)
chain: QNITEEFYQSTCSAVSKGYLSALRTGWYTSVITIELSNIKENKCNGTDAKVKLIKQELDKYKNAVTELQLLMQSTPATGSGSAICSGVAVCKVLHLEGEVNKIKSALLSTNKAVVSLSNGVSVLTFKVLDLKNYIDKQLLPILNKQSCSISNIETVIEFQQKNNRLLEITREFSVNAGVTTPVSTYMLTNSELLSLINDMPITNDQKKLMSNNVQIVRQQSYSIMCIIKEEVLAYVVQLPLYGVIDTPCWKLHTSPLCTTNTKEGSNICLTRTDRGWYCDNAGSVSFFPQAETCKVQSNRVFCDTMNSRTLPSEVNLCNVDIFNPKYDCKIMTSKTDVSSSVITSLGAIVSCYGKTKCTASNKNRGIIKTFSNGCDYVSNKGVDTVSVGNTLYCVNKQEGKSLYVKGEPIINFYDPLVFPSDEFDASISQVNEKINQSLAFIRKSDELLSAIGGYIPEAPRDGQAYVRKDGEWVLLSTFLGSGGSGAHIVMVDAYKPTKEPEA
notes: Pre-fusion-stabilised single-chain RSV F with T4 fibritin trimerisation motif; Expressed in ExpiCHO cells, purified through the C-tag; also called RSV-F-SpyTag-Ctag; RSF-F-SpyTag
As for B1, the binding result is listed as “binds”.
